Patent publication US20180155451A1 (published 2018)

B1: GpH7-A5/GpH7-B3 variant Y296_03V/GpL16-k0 (antibody, human IgG1, kappa)
heavy 1: not shown
heavy 2: not shown
light: DIVMTQSPLSLPVTPGEPASISCQASESLVHSNRNTYLHWYLQKPGQSPQLLIYKVSNRFSGVPDRFSGSGSGTDFTLKISRVEAEDVGVYYCSQNTHVPPTFGQGTKVEIERTVAAPSVFIFPPSDEQLKSGTASVVCLLNNFYPREAKVQWKVDNALQSGNSQESVTEQDSKDSTYSLSSTLTLSKADYEKHKVYACEVTHQGLSSPVTKSFNRGEC
notes: heterodimerized antibody, mutation in the GpH7-B3 chain only; also called He Ab
B2: GpH7-A5/GpH7-B3 variant P238_03V/GpL16-k0 (heterodimerized antibody, He Ab) (antibody, human IgG1, kappa)
heavy 1: not shown
heavy 2: not shown
light: B1 light
notes: Anti-glypican-3 IgG1; the alteration is in the GpH7-B3 chain only; also called P238V
B3: GpH7-A5/GpH7-B3 variant G237_20W/GpL16-k0 (heterodimerized antibody, He Ab) (antibody, human IgG1, kappa)
heavy 1: not shown
heavy 2: not shown
light: B1 light
notes: Anti-glypican-3 IgG1; the alteration is in the GpH7-B3 chain only; also called G237W
B4: GpH7-A5/GpH7-B3 variant L235_04F/GpL16-k0 (heterodimerized antibody, He Ab) (antibody, human IgG1, kappa)
heavy 1: not shown
heavy 2: not shown
light: B1 light
notes: Anti-glypican-3 IgG1; the alteration is in the GpH7-B3 chain only; also called L235F
B5: GpH7-A5/GpH7-B3 variant P238_07I/GpL16-k0 (heterodimerized antibody, He Ab) (antibody, human IgG1, kappa)
heavy 1: not shown
heavy 2: not shown
light: B1 light
notes: Anti-glypican-3 IgG1; the alteration is in the GpH7-B3 chain only; also called P238I
B6: GpH7-A5/GpH7-B3 variant G236_11K/GpL16-k0 (heterodimerized antibody, He Ab) (antibody, human IgG1, kappa)
heavy 1: not shown
heavy 2: not shown
light: B1 light
notes: Anti-glypican-3 IgG1; the alteration is in the GpH7-B3 chain only; also called G236K
B7: GpH7-A5/GpH7-B3 variant G237_10E/GpL16-k0 (heterodimerized antibody, He Ab) (antibody, human IgG1, kappa)
heavy 1: not shown
heavy 2: not shown
light: B1 light
notes: Anti-glypican-3 IgG1; the alteration is in the GpH7-B3 chain only; also called G237E
B8: GpH7-A5/GpH7-B3 variant L234_09D/GpL16-k0 (heterodimerized antibody, He Ab) (antibody, human IgG1, kappa)
heavy 1: not shown
heavy 2: not shown
light: B1 light
notes: Anti-glypican-3 IgG1; the alteration is in the GpH7-B3 chain only; also called L234D
B9: GpH7-A5/GpH7-B3 variant P238_06M/GpL16-k0 (heterodimerized antibody, He Ab) (antibody, human IgG1, kappa)
heavy 1: not shown
heavy 2: not shown
light: B1 light
notes: Anti-glypican-3 IgG1; the alteration is in the GpH7-B3 chain only; also called P238M
B10: GpH7-A5/GpH7-B3 variant G237_13S/GpL16-k0 (heterodimerized antibody, He Ab) (antibody, human IgG1, kappa)
heavy 1: not shown
heavy 2: not shown
light: B1 light
notes: Anti-glypican-3 IgG1; the alteration is in the GpH7-B3 chain only; also called G237S
B11: GpH7-A5/GpH7-B3 variant Y296_12R/GpL16-k0 (antibody, human IgG1, kappa)
heavy 1: not shown
heavy 2: not shown
light: B1 light
notes: as for B1
B12: GpH7-A5/GpH7-B3 variant Y296_11K/GpL16-k0 (antibody, human IgG1, kappa)
heavy 1: not shown
heavy 2: not shown
light: B1 light
notes: as for B1
B13: GpH7-A5/GpH7-B3 variant G236_10E/GpL16-k0 (heterodimerized antibody, He Ab) (antibody, human IgG1, kappa)
heavy 1: not shown
heavy 2: not shown
light: B1 light
notes: Anti-glypican-3 IgG1; the alteration is in the GpH7-B3 chain only; also called G236E
B14: GpH7-A5/GpH7-B3 variant G237_19Q/GpL16-k0 (heterodimerized antibody, He Ab) (antibody, human IgG1, kappa)
heavy 1: not shown
heavy 2: not shown
light: B1 light
notes: Anti-glypican-3 IgG1; the alteration is in the GpH7-B3 chain only; also called G237Q
B15: GpH7-A5/GpH7-B3 variant P238_08L/GpL16-k0 (heterodimerized antibody, He Ab) (antibody, human IgG1, kappa)
heavy 1: not shown
heavy 2: not shown
light: B1 light
notes: Anti-glypican-3 IgG1; the alteration is in the GpH7-B3 chain only; also called P238L
B16: GpH7-A5/GpH7-B3 variant P238_10E/GpL16-k0 (heterodimerized antibody, He Ab) (antibody, human IgG1, kappa)
heavy 1: not shown
heavy 2: not shown
light: B1 light
notes: Anti-glypican-3 IgG1; the alteration is in the GpH7-B3 chain only; also called P238E
B17: GpH7-A5/GpH7-B3 variant P238_02A/GpL16-k0 (heterodimerized antibody, He Ab) (antibody, human IgG1, kappa)
heavy 1: not shown
heavy 2: not shown
light: B1 light
notes: Anti-glypican-3 IgG1; the alteration is in the GpH7-B3 chain only; also called P238A
B18: GpH7-A5/GpH7-B3 variant G237_18N/GpL16-k0 (heterodimerized antibody, He Ab) (antibody, human IgG1, kappa)
heavy 1: not shown
heavy 2: not shown
light: B1 light
notes: Anti-glypican-3 IgG1; the alteration is in the GpH7-B3 chain only; also called G237N
B19: GpH7-A5/GpH7-B3 variant G237_05P/GpL16-k0 (heterodimerized antibody, He Ab) (antibody, human IgG1, kappa)
heavy 1: not shown
heavy 2: not shown
light: B1 light
notes: Anti-glypican-3 IgG1; the alteration is in the GpH7-B3 chain only; also called G237P

Tests used:
FcγRIIb = biological target: T1, FcγRIIb (human, UniProt P31994 43-217); assay: SPR (Biacore), antibody captured, FcγR as analyte; relative binding
T1 construct: extracellular domain; also called FcgRIIb; 2b
T1 sequence (looked up): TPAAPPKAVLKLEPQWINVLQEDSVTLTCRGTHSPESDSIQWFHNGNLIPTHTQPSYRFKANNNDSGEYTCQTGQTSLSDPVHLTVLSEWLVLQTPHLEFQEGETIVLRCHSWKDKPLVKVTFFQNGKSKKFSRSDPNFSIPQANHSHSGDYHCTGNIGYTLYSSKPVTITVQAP

FcγRIIa R [1] = biological target: T2, FcγRIIa R (human, UniProt P12318 34-217); assay: as above
T2 construct: extracellular domain; also called FcgRIIa R type; 2aR
T2 sequence (looked up): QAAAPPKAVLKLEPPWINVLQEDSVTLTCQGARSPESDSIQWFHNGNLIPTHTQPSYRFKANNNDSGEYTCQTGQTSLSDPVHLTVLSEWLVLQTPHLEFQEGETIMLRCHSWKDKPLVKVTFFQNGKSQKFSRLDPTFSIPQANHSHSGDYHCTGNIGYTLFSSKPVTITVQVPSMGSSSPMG

FcγRIIa R [2] = biological target: T2, FcγRIIa R; assay: SPR; He/Con_2aR divided by He/Con_2b (FcγRIIb as reference)
[3] = biological target: T3, FcγRIIb extracellular domain with C-terminal His tag (human, UniProt P31994 43-217); assay: SPR (Biacore), captured antibody, FcγR as analyte; relative to GpH7-A5/GpH7-B3/GpL16-k0 = 100
T3 construct: extracellular domain; also called FcgRIIb; 2b; not shown: His tag at the C terminus
T3 sequence (looked up): T1 sequence (looked up)
Experimental: (§1) Analysis of interaction between objective antibody and the FcγR was carried out using Biacore T100 (GE Healthcare). HBS-EP+ (GE Healthcare) was used as the running buffer, and the measurement temperature was set to 25° C. Chips produced by immobilizing the antigen peptide by the amine coupling method to a Series S Sencor Chip CM5 (GE Healthcare), or alternatively, chips produced by allowing preliminarily biotinylated antigen peptides to interact with and immobilize onto a Series S Sensor Chip SA (certified) (GE Healthcare) were used. Antibodies of interest were captured onto an antigen peptide-immobilized chip, and allowed to interact to each FcγR diluted with running buffer. To regenerate and repeatedly use the chip, the antibodies captured on the chip were washed off by reacting 10 mM glycine-HCl, pH 1.5.
(§2) The FcγR-binding activity of each antibody was assessed primarily using as an indicator the FcγR-binding activity and dissociation constant for FcγR.

[4] = biological target: T4, FcγRIIIa extracellular domain with C-terminal His tag (human, UniProt P08637 17-208); assay: as above
T4 construct: extracellular domain; also called FcgRIIIa; 3a; not shown: His tag at the C terminus
Experimental: as §1, §2

T4 sequence (P08637 17-208): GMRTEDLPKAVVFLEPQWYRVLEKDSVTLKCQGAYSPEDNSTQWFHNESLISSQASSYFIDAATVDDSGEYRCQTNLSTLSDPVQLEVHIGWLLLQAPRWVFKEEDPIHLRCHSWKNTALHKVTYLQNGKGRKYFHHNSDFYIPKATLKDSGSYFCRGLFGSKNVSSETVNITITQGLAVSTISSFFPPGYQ

Binder	He/Con_2b (IIb binding) (FcγRIIb)	He/Con_2aR (IIaR binding) (FcγRIIa R [1])	IIaR/IIb (He_2aR/2b) (FcγRIIa R [2])	He/Con_2b (IIb binding) [3]	He/Con_3a (IIIa binding) [4]
B1	79.3 % of GpH7-A5/GpH7-B3/GpL16-k0 (=100)	96.2 % of GpH7-A5/GpH7-B3/GpL16-k0 (=100)	1.21 ratio	–	–
B2	–	–	–	120 % of HeCon Ab	43.8 % of HeCon Ab
B3	–	–	–	193 % of HeCon Ab	19.7 % of HeCon Ab
B4	–	–	–	118 % of HeCon Ab	79.1 % of HeCon Ab
B5	–	–	–	80 % of HeCon Ab	27.8 % of HeCon Ab
B6	–	–	–	49.8 % of HeCon Ab	18.6 % of HeCon Ab
B7	–	–	–	114 % of HeCon Ab	25.4 % of HeCon Ab
B8	–	–	–	150 % of HeCon Ab	117 % of HeCon Ab
B9	–	–	–	174 % of HeCon Ab	30.5 % of HeCon Ab
B10	–	–	–	111 % of HeCon Ab	38.4 % of HeCon Ab
B11	79.5 % of GpH7-A5/GpH7-B3/GpL16-k0 (=100)	99.6 % of GpH7-A5/GpH7-B3/GpL16-k0 (=100)	1.25 ratio	–	–
B12	72.8 % of GpH7-A5/GpH7-B3/GpL16-k0 (=100)	94.3 % of GpH7-A5/GpH7-B3/GpL16-k0 (=100)	1.3 ratio	–	–
B13	–	–	–	110 % of HeCon Ab	70.7 % of HeCon Ab
B14	–	–	–	108 % of HeCon Ab	43.3 % of HeCon Ab
B15	–	–	–	204 % of HeCon Ab	75.5 % of HeCon Ab
B16	–	–	–	232 % of HeCon Ab	105 % of HeCon Ab
B17	–	–	–	57.4 % of HeCon Ab	31.4 % of HeCon Ab
B18	–	–	–	180 % of HeCon Ab	20.3 % of HeCon Ab
B19	–	–	–	24.6 % of HeCon Ab	10.9 % of HeCon Ab
